Data taken from doi:10.1101/2022.09.12.507593 (bioRxiv, 2022).

T1: OGT-TPR not fused to SUMO (aa 2-474 of ncOGT, SUMO tag removed) (human, UniProt O15294-1 2-474)
T1 sequence (looked up): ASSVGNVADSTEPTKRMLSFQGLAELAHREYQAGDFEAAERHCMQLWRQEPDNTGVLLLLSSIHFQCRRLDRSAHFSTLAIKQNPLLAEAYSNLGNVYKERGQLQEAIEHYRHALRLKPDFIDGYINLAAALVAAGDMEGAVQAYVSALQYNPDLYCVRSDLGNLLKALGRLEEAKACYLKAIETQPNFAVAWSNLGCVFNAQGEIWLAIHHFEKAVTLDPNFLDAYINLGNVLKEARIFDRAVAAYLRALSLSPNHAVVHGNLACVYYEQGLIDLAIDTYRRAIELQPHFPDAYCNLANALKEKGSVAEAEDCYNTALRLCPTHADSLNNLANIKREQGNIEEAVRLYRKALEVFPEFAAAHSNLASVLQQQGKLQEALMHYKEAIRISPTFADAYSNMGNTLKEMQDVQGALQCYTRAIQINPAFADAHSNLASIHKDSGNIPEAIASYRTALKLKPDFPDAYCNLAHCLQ

B1: WT FUS LCRN (Fused in sarcoma N-terminal low-complexity region, aa 1-214) (domain or fragment, human, UniProt P35637 1-214, looked up)
chain: MASNDYTQQATQSYGAYPTQPGQGYSQQSSQPYGQQSYSGYSQSTDTSGYGQSSYSSYGQSQNTGYGTQSTPQGYGSTGGYGSSQSSQSSYGQQSSYPGYGQQPAPSSTSGSYGSSSQSSSYGQPQSGSYSQQPSYGGQQQSYGQQQSYNPPQGYGQQNQYNSSSGGGGGGGGGGNYGQDQSSMSSGGGSGGGYGNQDQSGGGGSGGYGQQDRG

What was measured:
[1] = molecular target: B1; experiment: NMR titration
[2] = molecular target: T1, OGT-TPR not fused to SUMO (aa 2-474 of …); experiment: NMR titration

| average peak intensity ratio (plus OGT-TPR/apo) [1] | binding result [2] | Binder |
| --- | --- | --- |
| 0.48 |  | SUMO-fused TPR region of OGT (OGT-TPR, aa 2-474 of ncOGT) (domain or fragment, human, UniProt O15294-1 2-474, looked up) ASSVGNVADSTEPTKRMLSFQGLAELAHREYQAGDFEAAERHCMQLWRQEPDNTGVLLLLSSIHFQCRRLDRSAHFSTLAIKQNPLLAEAYSNLGNVYKERGQLQEAIEHYRHALRLKPDFIDGYINLAAALVAAGDMEGAVQAYVSALQYNPDLYCVRSDLGNLLKALGRLEEAKACYLKAIETQPNFAVAWSNLGCVFNAQGEIWLAIHHFEKAVTLDPNFLDAYINLGNVLKEARIFDRAVAAYLRALSLSPNHAVVHGNLACVYYEQGLIDLAIDTYRRAIELQPHFPDAYCNLANALKEKGSVAEAEDCYNTALRLCPTHADSLNNLANIKREQGNIEEAVRLYRKALEVFPEFAAAHSNLASVLQQQGKLQEALMHYKEAIRISPTFADAYSNMGNTLKEMQDVQGALQCYTRAIQINPAFADAHSNLASIHKDSGNIPEAIASYRTALKLKPDFPDAYCNLAHCLQ |
|  | binds | B1 |
